The RNAGym collection of RNA variant scans (doi:10.1073/pnas.2313332121)

B1: TPR t1 (parent)
chain: GACCAAUCUGCCCUCAGAGCUCGAGAACAUCUUCGGAUGCAGAGGAGGCAGGCUUCGGUGGCGCGAUAGCGCCAACGUCCUCAACCUCCAAUGCAUCCCACCACAUGAUGAUGCCUGAAGAGCCUUGGUUUUUUG

Variants of: B1
Assay: polymerase ribozyme fitness, log enrichment relative to wild type (log ratio); higher = more active; in vitro selection for triplet polymerase activity
How it was run: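 Fitness compares each genotype's enrichment to that of the wild type on a logarithmic scale, averaging replicates with inverse-variance weights. The logarithm is base 2. Enrichment came from Illumina sequencing of input and output libraries after one triplicate round of in vitro selection, which included frozen incubation at −7 °C, of PCR-built, transcribed mutant libraries of each subunit of a heterodimeric triplet polymerase ribozyme. Only genotypes with ≥10 input reads and ≥1 read per output were kept.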

Variant | polymerase ribozyme fitness (log ratio)
GACCAAUCUGCCCUCAGAGCUCGAGAACAUCUUCGGAGGCAGAGGAGGCAGGCUUCGGUGGCGCGAUAGCGUCAACGUCCUCAACCUCCAAUGCAUCCCACCAUAUGAUGAUGCCUGAAGAGCCUUGGUUUUUUG [U38G C72U C104U] | -1.14
GACCAAUCUGCCCUCAGAGCUCGAGAACAUCUUCGGAUGCAGAGAAGGCAGGCUUCGGAGGCGCGAUAGCGCCAACGUCCUCAACCUCCAAUGCAUCCCACCAUAUGAUGAUGCCUGAAGAGCCUUGGUUUUUUG [G45A U59A C104U] | -0.336
GACCAAUCUGCCCUCAGAGCUCGAGAAUAUCUUCGGAUGCAGAGGAGUCAGGCUUCGGUGGCGCGAUAGCGCCAACGACCUCAACCUCCAAUGCAUCCCACCACAUGAUGAUGCCUGAAGAGCCUUGGUUUUUUG [C28U G48U U78A] | -3.25
GACCAAUCUGCCCUCAGAGCUCGAGAACAUCUUCGAAUGCAGAGGAGGCAGGCUUCGGUGGCGCGAUAGCGCCAACGUCCUCAACCUCCAAUGCAUCCCACCACAAGAUGAUGCCUAAAGAGCCUUGGUUUUUUG [G36A U106A G117A] | -1.88
GACCAAUCUGCCCUCGGAGCUCGAGAACAUCUUCGGAUGCAGAGGAGGGAGGCUUGGGUGGCGCGAUAGCGCCAACGUCCUCAACCUCCAAUGCAUCCCACCACAUGAUGAUGCCUGAAGAGCCUUGGUUUUUUG [A16G C49G C56G] | -4.65
GACCAAUCUGCCCUCAGAGCUCGAGAACAUCUUCGGAUGCAGAGAAGGCAGGCUUCGGUGGCGCGAUAGCGCCAACGUCCUCACCCUCCAAUGCAUCCCACCACAUGAUGAUGCCUGAAGAGCCUUGGUUUUUUG [G45A A84C] | -0.717
GACCAAUCUGCCCUCAGAGCUCGAGAACGUCUUCGGAUGCAGAGUAGGCAGGCUUCGGUGGCGUGAUAGCGCCAACGUCCUCAACCUCCAAUGCAUCCCACCACAUGAUGAUGCCUGAAGAGCCUUGGUUUUUUG [A29G G45U C64U] | -2.76
GACCAAUCUGCCCUCAGAGCUCGAGAACAUCUUCGGAUGCAGAGGAGGCAGGCUUCGGUGGAGCGAUAGCGCCAACGUCCUCAACCUCCAAUGCAUCCCACCACAUGAUGAUGCCUCAAGAGCCUUGGUUUUAUG [C62A G117C U133A] | -5.95
GACCAAUCUGCCCUCAGAGCUCGAGAACAUCUUCGGAUGCAGAGGAGGCAGGCUUCGGUGGCGCGAUAGCGCCAACGUCCUCAACCUCCAAUGCAUCCCUCCACAUGAUGAUGCUUGAAGAGCCUUGGUUUUUUG [A100U C115U] | -2.94
GACCAAUCUGCCCUCAGAGCUCGAGAACAUCUUCGGAUGCAGAGGAGGCAGGCUUCGGUGGCGCGAUAGCGCCAACGACCUCAACCUCCAAUGAAUCCCACCACAUGAUGAUGCCUGAAGAGCCGUGGUUUUUUG [U78A C94A U125G] | -2.31
GACCAAUCUGUCCUCAGAGCUCGAGAACAUCUUCGGAUGCAGAGGAGGCAGGCUUCGGUGGCGCGAUAGCGCCAACUUCCUCAACCUCCAAUGCAUCCCACCACAUGAUGGCGCCUGAAGAACCUUGGUUUUUUG [C11U G77U A111G U112C G122A] | -0.084
GACCAAUCUGUCCUCAGAGCUCGAGAACAUCUUCGGAUGCAGAGGAGGCAGGCUUCGGUAGCGCGAUAGCGCCAACGUCCUCAACCUCCAAUGCAUCCCACCACAUGAUGAUGCCUGAAGAGCCUUGGUUUUUUG [C11U G60A] | -0.708
GACCAAUCUGCCCUCAGAGCUCGAGAACAUCUUCGGAUGCAGAGGAGGCAGGCUUCGGUCGCGCGAUAGCGCCAACGUCCUCAACCUCCAAUGCAUCCCACCACAUGAUGAUGCCUGAAGAGCUUUGGUUUUUUA [G60C C124U G135A] | 2.05
GACCAAUCUGCCCUCAGAGCUCGAGAACAUCUUCGGAUGCCCAGGAGGCAGGCUUCGGUGGCGCGAUAGCGCCAACGUCCUCAACCUCCAAUGCAUCCCACCACAAGAUGAUGCCUGAAGAGCCUUGGUUUUUUG [A41C G42C U106A] | -2.3
GACCAAUCUGCCCUCAGAGCUCGAGAACAUCUUCGGAUGCAGAGGAAGCAGGCUUCGGUGGCGCGAUAUCGCCAACGUCCUCAACAUCCAAUGCAUUCCACCACAUGAUGAUGCUUGAAGAGCGCUGGUUUUUUG [G47A G69U C86A C97U C115U C124G U125C] | -0.107
GACCAAUCUGCCCUCAGAGCUCGAGAACAUCUUCGGAUGCAGAGGAGGCAGGCUUCGGUGGCGCGAUAGCGCAAACGUCCUCAACCUCCAGUGCAUCCCACCACAUGAUGAUGCCUGAAGAGCCUUGGUUUUUUG [C73A A91G] | -0.975
GACCAAUUUGCCCUCAGAGCUCGAGAACAUCUUCGGAUGCAGAGGAGGCAGGCUUCGGUGGCGCGAUAGCGCCAACGUCCUCAACCUCCAAUGCAUCCCACCACAUGAUGAUGCCUGAAGAGCCUUGGGUUUAUG [C8U U129G U133A] | -1.94
GACCAAUCUGCCCUCAAAGCUCGAGAACAUCUUCGGAUGCAGAGGAGGCAGGCUUCGGUGACGCGAUAGCGCUACCGUCCUCAACCUCCAAUGCAUCCCACCACAUGAUGAUGCCUGAAGAGCCUUGGUUUUUUG [G17A G61A C73U A75C] | -3.99
GACCAAUCUGCCCUCAGAGCUCGAGAACAUCUUCGGAUGCAGAGGAGGCAGGCUUCGGGGGCGCGAUAGCGCCAACGUCCUCAAUCUCCAAUGCAUCCCACCACAUGAUGAUGCAUGAAGAGCCUUGGUUUUUUG [U59G C85U C115A] | -0.695
GACCAAUCUGCCCUCAGAGCUCGAGAACAUCUUCGGAUGCAGAGGAGGCAGGCUUCGGUGGCGCGAUAGCGCCAACGUCCUCAACCUCCAAUGCAUCCCAACACAUGAUAAUGCCUGAAGAGACUUGGUUUUUUG [C101A G110A C123A] | -3.51
GACUAAUCUGCCCUCAGAGCUCGAGAACAUCUUCGGAUGCAGUGGAGGCAGGCUUCGGUGGCGCGAUAGCGCCAACGUCCUCAACCUUCAAGGCAUCCCACCACAUGAUGAUGCCUGAAGAGCCUUGGUUUUUUG [C4U A43U C88U U92G] | -2.04
